Measured values published in article PMC6049929, “Exchange of functional domains between a bacterial conjugative relaxase and the integrase of the human adeno-associated virus”.

Legend:
[1] = target: TrwC/Rep chimera (untagged) (plasmid R388 / human adeno-associated virus (AAV)) (UniProt P03132); experiment: fluorescence polarization; details: EMSA: 10 mM Hepes-KOH pH 7.5, 10 mM KCl, 3.3 mM MgCl2, 1 mM EDTA, 2.5 mM DTT, 400 ng poly(dI-dC), 15 mM (Rep68) or 75 mM (chimera) NaCl, room temperature 20 min
[2] = target: His-TrwC/Rep chimera (plasmid R388 / human adeno-associated virus (AAV)) (UniProt P03132); experiment: EMSA; details: EMSA: 10 mM Hepes-KOH pH 7.5, 10 mM KCl, 3.3 mM MgCl2, 1 mM EDTA, 2.5 mM DTT, 400 ng poly(dI-dC), 15 mM (Rep68) or 75 mM (chimera) NaCl, room temperature 20 min
[3] = target: His-TrwC/Rep chimera (plasmid R388 / human adeno-associated virus (AAV)) (UniProt P03132); experiment: competition; details: EMSA: 10 mM Hepes-KOH pH 7.5, 10 mM KCl, 3.3 mM MgCl2, 1 mM EDTA, 2.5 mM DTT, 400 ng poly(dI-dC), 15 mM (Rep68) or 75 mM (chimera) NaCl, room temperature 20 min
[4] = target: TrwC/Rep chimeric protein (N-terminal relaxase domain of R388 TrwC fused to the C-terminal domain of AAV2 Rep68) (bacterial plasmid R388 (E. coli) | adeno-associated virus 2 (AAV2)) (UniProt Q47673); experiment: AUC; sedimentation velocity, 20°C, 492 nm; 3.32 μM TrwC/Rep chimera with 0.83 μM 5' 6-carboxyfluorescein oriTw(34-mer) ssDNA (protein/DNA 4:1); oligomer size from the theoretical S of a globular complex
His-Rep68 = His-Rep68 (human adeno-associated virus (AAV), UniProt P03132 1-536); experiment: EMSA; 100 ng protein, 15 mM NaCl; EMSA: 10 mM Hepes-KOH pH 7.5, 10 mM KCl, 3.3 mM MgCl2, 1 mM EDTA, 2.5 mM DTT, 400 ng poly(dI-dC), 15 mM (Rep68) or 75 mM (chimera) NaCl, room temperature 20 min; FP: 25 mM HEPES pH 7.0, 200 mM NaCl, 25 C; AUC: 25 mM Tris-HCl pH 7.9, 200 mM NaCl, 1 mM TCEP, 20 C; details: protein: recombinant, tags: N-terminal His (pET15b, PreScission site)

## AGCGCACCGAAAGGTGCGTATTGTCTATAGCCCA [oriTw 34-mer (oriTw(25+8) plus 5' dA)]
[1]
  Kd: 16 nM

## GCGCACCGAAAGGTGCGTATTGTCTATAGCCCA [oriTw(25+8)]
[2]
  binding signal: 49 % shifted
[3]
  binding signal: 24 % shifted

## TrwC/Rep chimeric protein (N-terminal relaxase domain of R388 TrwC fused to the C-terminal domain of AAV2 Rep68) (from UniProt Q47673 2-293; P03132 209-536) (enzyme)
[4]
  stoichiometry N: > 6 subunits

B1: oriTw(25+8) (ssDNA)
DNA: GCGCACCGAAAGGTGCGTATTGTCTATAGCCCA
His-Rep68; label: 32P, inverted repeat IR2
  binding result: no binding

B2: AAV ori RBSmut (dsDNA)
DNA 1: CTAGATGATGGAGTTGGCCACTCCCTCTCTCCTCCCTCCCTCCCTCACTG
DNA 2: TCGACAGTGAGGGAGGGAGGGAG
His-Rep68; label: 32P 5' end, top strand
  binding result: no binding
